Source: patent US6458368

What was measured:
[1] = target: baculo-derived HPV16 VLPs in PBS (native form) (Human papillomavirus type 16) (UniProt P03101); test: ELISA, plates coated with baculo-derived HPV16 VLPs in PBS; antibody stock 35 µg/ml
[2] = target: unfolded HPV16 VLP (baculo-derived HPV16 VLPs in 0.2M carbonate buffer pH9.5) (Human papillomavirus type 16) (UniProt P03101); test: ELISA, plates coated with VLP in carbonate buffer pH 9.5; antibody stock 35 µg/ml

HPV16-L1 mAb CAMVIR-1 (antibody)
IgG titer (reciprocal of the highest sample dilution that yielded an OD492 four times that of preimmune sample) (reciprocal dilution) [1]: 16000 | IgG titer (reciprocal of the highest sample dilution that yielded an OD492 four times that of preimmune sample) (reciprocal dilution) [2]: 80000
